From patent US20060269536A1 (UNIVERSITE DE LAUSANNE, published 2006)
Positions count from the first letter of the chain named. Each block holds one binder with its values, some of them ahead of it.

Key:
hK3 (PSA) [1] = biological target: T1, hK3 (PSA) (human, UniProt P07288 25-261); test: cell-based or functional assay
[2] = biological target: urokinase plasminogen activator (uPA) (UniProt P00749 21-431, limits assumed); test: cell-based or functional assay
[3] = biological target: T2, human neutrophil elastase (HNE) (human, UniProt P08246 30-247, limits assumed); test: cell-based or functional assay
T2 sequence (looked up): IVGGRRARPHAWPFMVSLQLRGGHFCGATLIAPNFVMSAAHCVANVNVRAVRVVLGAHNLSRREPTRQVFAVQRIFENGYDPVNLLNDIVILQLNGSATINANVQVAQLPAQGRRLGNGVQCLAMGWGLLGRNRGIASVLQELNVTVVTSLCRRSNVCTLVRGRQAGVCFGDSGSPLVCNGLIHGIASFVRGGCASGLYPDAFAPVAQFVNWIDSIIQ

[4] = biological target: human plasma kallikrein (PK) (human, UniProt P03952 20-638); test: cell-based or functional assay
human plasma kallikrein (PK), sequence (P03952 20-638 limits assumed): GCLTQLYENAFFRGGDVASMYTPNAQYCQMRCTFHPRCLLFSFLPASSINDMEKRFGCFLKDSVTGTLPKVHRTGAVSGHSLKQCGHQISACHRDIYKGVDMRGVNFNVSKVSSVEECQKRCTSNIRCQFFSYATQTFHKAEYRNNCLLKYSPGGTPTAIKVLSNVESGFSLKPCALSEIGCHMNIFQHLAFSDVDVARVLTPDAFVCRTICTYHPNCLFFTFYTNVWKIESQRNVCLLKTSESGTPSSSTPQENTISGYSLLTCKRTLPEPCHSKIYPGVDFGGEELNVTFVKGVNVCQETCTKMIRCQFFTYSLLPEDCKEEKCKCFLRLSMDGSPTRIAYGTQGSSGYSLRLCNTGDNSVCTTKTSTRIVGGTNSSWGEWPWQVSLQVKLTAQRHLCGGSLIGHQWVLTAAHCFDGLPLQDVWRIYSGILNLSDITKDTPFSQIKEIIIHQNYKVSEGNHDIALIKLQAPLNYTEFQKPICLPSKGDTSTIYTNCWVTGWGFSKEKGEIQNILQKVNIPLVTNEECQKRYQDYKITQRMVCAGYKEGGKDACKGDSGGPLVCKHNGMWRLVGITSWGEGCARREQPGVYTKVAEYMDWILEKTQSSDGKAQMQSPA

human kallikrein hK1 = human kallikrein hK1 (human, UniProt P06870 25-262); test: cell-based or functional assay
human kallikrein hK1, sequence (P06870 25-262): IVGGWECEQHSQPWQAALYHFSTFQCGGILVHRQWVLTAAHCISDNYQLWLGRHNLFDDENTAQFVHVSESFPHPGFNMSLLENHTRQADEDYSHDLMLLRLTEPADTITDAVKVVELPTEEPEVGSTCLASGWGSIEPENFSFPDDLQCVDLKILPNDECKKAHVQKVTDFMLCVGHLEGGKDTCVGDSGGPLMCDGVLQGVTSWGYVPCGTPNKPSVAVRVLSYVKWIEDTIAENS

[5] = biological target: human glandular kallikrein hK2 (human, UniProt P20151 25-261); test: cell-based or functional assay
[6] = biological target: T3, Human chymotrypsin (Chtr) (human, UniProt P17538 19-263); test: cell-based or functional assay
T3 sequence (P17538 19-263): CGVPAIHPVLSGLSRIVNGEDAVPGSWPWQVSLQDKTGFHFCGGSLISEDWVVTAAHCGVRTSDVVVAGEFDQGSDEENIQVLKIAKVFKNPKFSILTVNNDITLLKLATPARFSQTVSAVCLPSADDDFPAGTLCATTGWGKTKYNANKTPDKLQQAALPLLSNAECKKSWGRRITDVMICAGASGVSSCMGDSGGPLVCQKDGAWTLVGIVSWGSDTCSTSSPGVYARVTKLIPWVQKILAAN

[7] = biological target: T3, Human chymotrypsin (Chtr); test: residual protease activity against [I]o/[E]o, linear regression, x intercept
Method: The stoichiometry of inhibition (SI) values were determined for the inhibition of rACTWT and its variants with hK2 and different other enzymes. An initial test was made with a molar excess of rACT (100 fold) over hK2, PSA, hK1, chymotrypsin (Chtr), plasma kallikrein (PK), urokinase (uPA) and human neutrophile elastase (HNE) enzymes. The reaction was carried out for 30 min at 25° C. (90 min at 37° C. for PSA) in reaction buffer (50 mM Tris pH 7.5, 150 mM NaCl, 0.05% Triton X-100, 0.01% BSA) and residual enzyme activity was measured by adding fluorescent substrates (Z-Phe-Arg-AMC for hK1, hK2 and PK, Suc-Ala-Ala-Pro-Phe-AMC for Chtr, Z-Gly-Gly-Arg-AMC for uPA, MeOSuc-Ala-Ala-Pro-Val-AMC for HNE, and CFP-TFRSA-YFP for PSA). Activity of enzyme in presence of inhibitors was compared to uninhibited reaction. For reactions where an inhibition was observed, SI was determined by incubating different concentrations of recombinant serpins. […]
In order to determine the SI values of all the recombinant variants, Applicants have incubated hK2 (5 nM) with different concentrations (6.25-500 nM) of rACT_{8.20} (x), rACT_{6.2} (□), rACT_{8.3} (Δ), rACT_{6.7} (⋄), rACT_{6.1} ( ), rACT_{5.18} (∘), rACTWT (+), at 25° C. for 30 min in reaction buffer. […] The SI was determined using linear regression analysis to extrapolate the I/E ratio (i.e. the x intercept).

Trypsin = test: inhibitory profile of MDCI; method as in example 1
hK3 (PSA) [8] = biological target: T1, hK3 (PSA); test: Western blot of hK3-ACT complex, anti-His antibody (FIG. 6B)
Method: For each variants of ACT, 1 μg of inhibitor was incubated with 100 ng of either hK2 or hK3 during 1 hour at 37° C. under physiological conditions.

T1 sequence (P07288 25-261 limits assumed): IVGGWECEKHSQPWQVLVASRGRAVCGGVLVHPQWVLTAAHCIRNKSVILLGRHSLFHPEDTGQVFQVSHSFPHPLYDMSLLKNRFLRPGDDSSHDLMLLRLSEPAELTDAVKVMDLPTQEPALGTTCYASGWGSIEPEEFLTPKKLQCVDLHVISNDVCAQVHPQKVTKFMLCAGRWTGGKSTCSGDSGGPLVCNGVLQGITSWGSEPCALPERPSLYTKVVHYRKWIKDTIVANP

B2: rACT8.20 (designed binder)
chain: MRGSHHHHHHSRHPNSPLDEENLTQENQDRGTHVDLGLASANVDFAFSLYKQLVLKAPDKNVIFSPLSISTALAFLSLGAHNTTLTEILKGLKFNLTETSEAEIHQSFQHLLRTLNQSSDELQLSMGNAMFVKEQLSLLDRFTEDAKRLYGSEAFATDFQDSAAAKKLINDYVKNGTRGKITDLIKDLDSQTMMVLVNYIFFKAKWEMPFDPQDTHQSRFYLSKKKWVMVPMMSLHHLTIPYFRDEELSCTVVELKYTGNASALFILPDQDKMEEVEAMLLPETLKRWRDSLEFREIGELYLPKFSISRDYNLNDILLQLGIEEAFTSKADLSGITGARNLAVSQVVHKAVLDVFEEGTEASAATAVKITLRSRAVETRTIVRFNRPFLMIIVPTDTQNIFFMSKVTNPKQA
Inhibition % (residual enzyme activity, fluorescent substrate) [2]: 0%
Inhibition % (residual enzyme activity, fluorescent substrate) [3]: 30%
Inhibition % (residual enzyme activity, fluorescent substrate) [4]: 54%
Inhibition % (residual enzyme activity, fluorescent substrate) (human kallikrein hK1): 0%
Inhibition % (residual enzyme activity, fluorescent substrate) [5]: 95%
Inhibition % (residual enzyme activity, fluorescent substrate) [6]: 66%

B5: rACT6.2 (designed binder)
chain: B2 chain with L371R, R374I, A375D
notes: Recombinant human α1-antichymotrypsin variant, RSL P3-P'3 = TRRSID; N-terminal His tag, E. coli TG1; also called MD62; MD 62
binding result (hK3 (PSA) [8]): no binding
Inhibition % (residual enzyme activity, CFP-TFRSA-YFP substrate, 90 min at 37°) (hK3 (PSA) [1]): 0%
Inhibition % (residual enzyme activity, fluorescent substrate) [2]: 0%
Inhibition % (residual enzyme activity, fluorescent substrate) [3]: 0%
Inhibition % (residual enzyme activity, fluorescent substrate) [4]: 100%
Inhibition % (residual enzyme activity, fluorescent substrate) (human kallikrein hK1): 0%
Inhibition % (residual enzyme activity, fluorescent substrate) [5]: 100%
Inhibition % (residual enzyme activity, fluorescent substrate) [6]: 0%

B6: rACT6.1 (designed binder)
chain: B2 chain with T370M, L371T, R374N
notes: N-terminal His tag, E. coli TG1; also called MD61; MD 61
binding result (hK3 (PSA) [8]): no binding
Inhibition % (residual enzyme activity, CFP-TFRSA-YFP substrate, 90 min at 37°) (hK3 (PSA) [1]): 0%
Inhibition % (residual enzyme activity, fluorescent substrate) [2]: 0%
Inhibition % (residual enzyme activity, fluorescent substrate) [3]: 60%
Inhibition % (residual enzyme activity, fluorescent substrate) [4]: 100%
Inhibition % (residual enzyme activity, fluorescent substrate) (human kallikrein hK1): 0%
Inhibition % (residual enzyme activity, fluorescent substrate) [5]: 100%
Inhibition % (residual enzyme activity, fluorescent substrate) [6]: 0%

B7: rACT6.7 (designed binder)
chain: B2 chain with T370K, S373T, R374T, A375L
Inhibition % (residual enzyme activity, CFP-TFRSA-YFP substrate, 90 min at 37°) (hK3 (PSA) [1]): 0%
Inhibition % (residual enzyme activity, fluorescent substrate) [2]: 0%
Inhibition % (residual enzyme activity, fluorescent substrate) [3]: 0%
Inhibition % (residual enzyme activity, fluorescent substrate) [4]: 36%
Inhibition % (residual enzyme activity, fluorescent substrate) (human kallikrein hK1): 0%
Inhibition % (residual enzyme activity, fluorescent substrate) [5]: 100%
Inhibition % (residual enzyme activity, fluorescent substrate) [6]: 0%

B8: ACT5.18 (designed binder)
chain: B2 chain with L371E, S373V, R374S, A375P
Inhibition % (residual enzyme activity, CFP-TFRSA-YFP substrate, 90 min at 37°) (hK3 (PSA) [1]): 0%
Inhibition % (residual enzyme activity, fluorescent substrate) [2]: 0%
Inhibition % (residual enzyme activity, fluorescent substrate) [3]: 0%
Inhibition % (residual enzyme activity, fluorescent substrate) [4]: 0%
Inhibition % (residual enzyme activity, fluorescent substrate) (human kallikrein hK1): 0%
Inhibition % (residual enzyme activity, fluorescent substrate) [5]: 73%
Inhibition % (residual enzyme activity, fluorescent substrate) [6]: 0%

Now from value to binder:

Inhibition % (residual enzyme activity, CFP-TFRSA-YFP substrate, 90 min at 37°) (hK3 (PSA) [1]): 80%
Inhibition % (residual enzyme activity, fluorescent substrate) [2]: 0%
Inhibition % (residual enzyme activity, fluorescent substrate) [3]: 15%
Inhibition % (residual enzyme activity, fluorescent substrate) [4]: 0%
Inhibition % (residual enzyme activity, fluorescent substrate) (human kallikrein hK1): 0%
Inhibition % (residual enzyme activity, fluorescent substrate) [5]: 0%
Inhibition % (residual enzyme activity, fluorescent substrate) [6]: 100%
SI (stoichiometry of inhibition) [7]: 2
B1: rACTWT (recombinant wild type α1-antichymotrypsin) (other, human)
chain: HHHHHHNSPLDEENLTQENQDRGTHVDLGLASANVDFAFSLYKQLVLKAPDKNVIFSPLSISTALAFLSLGAHNTTLTEILKGLKFNLTETSEAEIHQSFQHLLRTLNQSSDELQLSMGNAMFVKEQLSLLDRFTEDAKRLYGSEAFATDFQDSAAAKKLINDYVKNGTRGKITDLIKDLDSQTMMVLVNYIFFKAKWEMPFDPQDTHQSRFYLSKKKWVMVPMMSLHHLTIPYFRDEELSCTVVELKYTGNASALFILPDQDKMEEVEAMLLPETLKRWRDSLEFREIGELYLPKFSISRDYNLNDILLQLGIEEAFTSKADLSGITGARNLAVSQVVHKAVLDVFEEGTEASAATAVKITLLSALVETRTIVRFNRPFLMIIVPTDTQNIFFMSKVTNPKQA
notes: Serpin; Expressed in E. coli TG1 from pQE-9 with an N-terminal His tag; also called ACTWT (LL↓SA); wild type rACT

kon (Trypsin): 1.13e+06 M⁻¹ s⁻¹
B3: rACTPCI (MD CI) (designed binder)
chain: B2 chain with L371F, R374A, A375L

Inhibition % (residual enzyme activity, CFP-TFRSA-YFP substrate, 90 min at 37°) (hK3 (PSA) [1]): 0%
Inhibition % (residual enzyme activity, fluorescent substrate) [2]: 0%
Inhibition % (residual enzyme activity, fluorescent substrate) [3]: 0%
Inhibition % (residual enzyme activity, fluorescent substrate) [4]: 0%
Inhibition % (residual enzyme activity, fluorescent substrate) (human kallikrein hK1): 0%
Inhibition % (residual enzyme activity, fluorescent substrate) [5]: 100%
Inhibition % (residual enzyme activity, fluorescent substrate) [6]: 0%
B4: rACT8.3 (designed binder)
chain: B2 chain with T370R, L371G, R374E, A375L
